According to patent publication US20260022195A1:

T1: human C1s (active form) (human) (UniProt P09871)
T1 sequence 1: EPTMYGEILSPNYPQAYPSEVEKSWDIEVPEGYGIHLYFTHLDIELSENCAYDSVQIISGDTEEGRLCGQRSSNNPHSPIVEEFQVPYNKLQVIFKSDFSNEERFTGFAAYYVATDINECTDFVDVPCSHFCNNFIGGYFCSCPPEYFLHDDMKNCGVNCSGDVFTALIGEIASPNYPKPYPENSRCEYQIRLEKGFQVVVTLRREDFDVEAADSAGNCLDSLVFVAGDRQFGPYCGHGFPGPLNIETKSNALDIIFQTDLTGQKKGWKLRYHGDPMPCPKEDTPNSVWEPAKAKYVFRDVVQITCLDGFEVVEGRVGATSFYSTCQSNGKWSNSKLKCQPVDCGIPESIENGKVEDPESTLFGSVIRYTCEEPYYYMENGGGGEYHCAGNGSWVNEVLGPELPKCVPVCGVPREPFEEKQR
T1 sequence 2: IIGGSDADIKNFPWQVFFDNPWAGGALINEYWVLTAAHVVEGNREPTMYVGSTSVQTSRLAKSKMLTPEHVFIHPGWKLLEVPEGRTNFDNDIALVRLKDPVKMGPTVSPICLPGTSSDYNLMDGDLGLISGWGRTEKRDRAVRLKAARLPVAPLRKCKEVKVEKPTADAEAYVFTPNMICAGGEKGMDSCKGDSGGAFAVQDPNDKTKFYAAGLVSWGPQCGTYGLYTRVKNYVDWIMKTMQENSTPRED

B1: TNT020 (antibody, from another filing, V domains shown)
VH: QVQLVQSGAEVKKPGASVKLSCTASGFNIKDDYIHWVKQAPGQGLEWIGRIDPADGHTKYAPKFQVKVTITADTSTSTAYLELSSLRSEDTAVYYCARYGYGREVFDYWGQGTTVTVSS
VL: DIVLTQSPDSLAVSLGERATISCKASQSVDYDGDSYMNWYQQKPGQPPKILIYDASNLESGIPARFSGSGSGTDFTLTISSLEPEDFAIYYCQQSNEDPWTFGGGTKVEIKR
B2: TNT009 (antibody, from another filing, V domains shown)
VH: EVQLVESGGGLVKPGGSLRLSCAASGFTFSNYAMSWVRQAPGKGLEWVATISSGGSHTYYLDSVKGRFTISRDNSKNTLYLQMNSLRAEDTALYYCARLFTGYAMDYWGQGTLVTVSS
VL: QIVLTQSPATLSLSPGERATMSCTASSSVSSSYLHWYQQKPGKAPKLWIYSTSNLASGVPSRFSGSGSGTDYTLTISSLQPEDFATYYCHQYYRLPPITFGQGTKLEIKR

Biological target: T1, human C1s (active form) (human)
Test: cell-based or functional assay

Binder | IC50 of inhibition of C3b deposition on antibody-sensitized human RBCs (flow cytometry, 5% human serum) [nM]
B1 | 6.5
B2 | 5
